Test results as given in publication PMC8847575, “HSL1 and BAM1/2 impact epidermal cell development by sensing distinct signaling peptides” (Nature Communications, 2022).
Square brackets hold non-standard residues; d marks the D form. Peptide text beside a SMILES is read from it. Hyp = O=C(O)[C@@H]1C[C@@H](O)CN1

B1: CLE9^Hyp112PHyp115P peptide (peptide, UniProt Q9FZE4 109-120, looked up)
peptide: RLVPSGPNPLHN
modifications: Pro112 and Pro115 not hydroxylated
notes: CLE9 mature dodecapeptide with plain proline at 112 and 115 in place of hydroxyproline; also called CLE9 with Hyp in positions 4 and 7 replaced by Pro
B2: CLE9^V111P peptide (peptide, UniProt Q9FZE4 109-120, looked up)
peptide: RLPPSGPNPLHN
notes: CLE9 mature dodecapeptide with Val111 changed to Pro; also called replacement of the third Val by a Pro

What was measured:
[1] = target: T1, HSL1 ectodomain (Arabidopsis thaliana, UniProt Q9SGP2); test: GCI binding kinetics, peptide vs immobilised HSL1; conditions: HSL1 on surface, peptide as analyte, 25 °C, pH 5, one-to-one binding model, read-out: ka association rate constant, peptide vs HSL1 (GCI)
T1 construct: HSL1 (residues 17-618, AT1G28440); azurocidin or Drosophila BIP signal peptide (secretion signal) (N); made in house; host or cells: Trichoplusia ni Tnao38 insect cells (baculovirus)
T1 sequence (Q9SGP2 17-618): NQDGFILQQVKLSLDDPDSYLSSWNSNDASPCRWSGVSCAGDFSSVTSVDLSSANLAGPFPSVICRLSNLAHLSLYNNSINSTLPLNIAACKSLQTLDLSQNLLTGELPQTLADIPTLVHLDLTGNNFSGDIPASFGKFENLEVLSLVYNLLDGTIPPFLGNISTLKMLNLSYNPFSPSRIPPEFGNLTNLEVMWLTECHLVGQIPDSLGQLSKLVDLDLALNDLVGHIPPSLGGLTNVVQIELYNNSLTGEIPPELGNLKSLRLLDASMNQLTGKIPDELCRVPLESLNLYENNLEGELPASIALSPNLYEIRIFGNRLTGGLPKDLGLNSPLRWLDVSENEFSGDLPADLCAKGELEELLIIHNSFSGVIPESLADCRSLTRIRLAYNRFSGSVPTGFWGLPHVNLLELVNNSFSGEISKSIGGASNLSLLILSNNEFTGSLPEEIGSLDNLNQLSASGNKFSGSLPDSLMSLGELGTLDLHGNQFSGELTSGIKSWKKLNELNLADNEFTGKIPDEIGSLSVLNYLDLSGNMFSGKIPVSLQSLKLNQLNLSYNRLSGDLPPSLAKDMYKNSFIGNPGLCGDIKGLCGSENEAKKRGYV
Experimental: 25 μM of HSL1 were biotinylated with the biotin ligase BirA[60] (2 μM) for 1 h at 30 °C, in a volume of 200 μl. The buffer used in the reaction was: 25 mM Tris pH 8, 150 mM NaCl, 5 mM MgCl2, 2 mM 2-Mercaptoethanol, 0.15 mM Biotin, 2 mM ATP. Biotinylated proteins were purified by size-exclusion chromatography in 20 mM citric acid pH5, 150 mM NaCl and subsequently used in GCI experiments.
GCI experiments were performed with the Creoptix WAVE system (Creoptix AG, Switzerland) using 4PCP WAVE chips (thin quasiplanar polycarboxylate surface; Creoptix, Switzerland). Chips were first conditioned with borate buffer (100 mM sodium borate pH 9.0, 1 M NaCl; Xantec, Germany). Chips were activated with 1:1 mix of 400 mM N-(3-dimethylaminopropyl)-N′-ethylcarbodiimide hydrochloride and 100 mM N-hydroxysuccinimide (Xantec, Germany). Streptavidin (50 µg/ml; Sigma, Germany) in 10 mM sodium acetate pH 5.0 (Sigma, Germany) was immobilized on the chip surface until saturation was reached, followed by passivation of the surface with BSA (50 µg/ml; Sigma, Germany) in 10 mM sodium acetate pH5.0, and a final quenching step with 1 M ethanolamine pH 8.0 (Xantec, Germany). Then, biotinylated HSL1 (ligand) (80–100 μg/ml) was captured on the streptavidin surface until the desired density was reached. Normal kinetic analysis were performed to measure the binding of IDL peptides (analyte) to HSL1. Experiments were performed at 25 °C with a 1:2 dilution series from a maximum concentration of 5–50 μM peptide, in 20 mM citrate pH 5, 250 mM NaCl, 0.005% Tween-20 v/v. To analyze the interaction kinetics of the co-receptor SERK1, 2 µM of the protein was used as a higher dilution with running buffer containing 5 µM of the IDL peptides being tested. Blank injections were used for double referencing and a dimethylsulfoxide (DMSO) calibration curve for bulk correction. Analysis and correction of the obtained data were performed using the Creoptix WAVE control software (correction applied: X and Y offset; DMSO calibration; double referencing). One-to-one binding model was used for both experiments.

[2] = target: T2, BAM1 (BARELY ANY MERISTEM 1) ectodomain (Arabidopsis, UniProt O49545 20-637); test: ITC
T2 chain: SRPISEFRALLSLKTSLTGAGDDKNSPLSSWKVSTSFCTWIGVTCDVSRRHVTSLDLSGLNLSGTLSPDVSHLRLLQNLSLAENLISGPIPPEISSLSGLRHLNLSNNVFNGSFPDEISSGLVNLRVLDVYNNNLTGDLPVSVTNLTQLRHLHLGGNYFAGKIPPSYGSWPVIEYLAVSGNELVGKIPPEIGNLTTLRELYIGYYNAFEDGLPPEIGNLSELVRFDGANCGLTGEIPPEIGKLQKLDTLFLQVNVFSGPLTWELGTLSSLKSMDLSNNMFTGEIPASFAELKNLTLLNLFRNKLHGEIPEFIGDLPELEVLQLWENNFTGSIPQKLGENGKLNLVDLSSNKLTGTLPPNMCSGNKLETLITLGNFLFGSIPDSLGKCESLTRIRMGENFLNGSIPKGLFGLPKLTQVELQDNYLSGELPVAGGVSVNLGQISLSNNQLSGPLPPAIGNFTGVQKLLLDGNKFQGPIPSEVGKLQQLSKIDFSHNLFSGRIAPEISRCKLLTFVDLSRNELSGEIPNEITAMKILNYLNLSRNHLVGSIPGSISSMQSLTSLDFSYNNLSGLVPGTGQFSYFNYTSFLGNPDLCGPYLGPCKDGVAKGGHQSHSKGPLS

[3] = target: T3, BAM1 (BARELY ANY MERISTEM 1) ectodomain (Arabidopsis, UniProt O49545 20-637); test: ITC; peptide (75 to 600 µM) injected into 10 to 30 µM HSL1 or BAM1 ectodomain in the cell; 25 °C; 20 mM sodium citrate pH 5.0, 150 mM NaCl; N fitted to 1; conditions: both partners purified
T3 construct: BAM1 LRR receptor kinase ectodomain, Arabidopsis, residues 20-637, AT5G65700; codon optimised; secreted with an azurocidin or Drosophila BiP signal peptide; also called BAM1 extracellular domain; BAM1 LRR ectodomain; source: Trichoplusia ni Tnao38 cells (baculovirus), secreted, purified (Ni2+, Strep-Tactin, TEV cleavage, second Ni2+, SEC)
T3 sequence (looked up): T2 chain

Molecule | kon [1] | Kd [2] | Kd [3]
CC(C)[C@H](NC(=O)[C@@H]1CCCN1)C(=O)N1CCC[C@H]1C(=O)N[C@@H](C)C(=O)N[C@@H](CO)C(=O)N[C@@H](C)C(=O)N1C[C@H](O)C[C@H]1C(=O)N[C@@H](CO)C(=O)N[C@@H](CCCNC(=N)N)C(=O)N[C@@H](CCCCN)C(=O)N[C@@H](Cc1c[nH]cn1)C(=O)N[C@@H](CC(N)=O)C(=O)O [IDL4, IDA-LIKE] (H-PVPASA[Hyp]SRKHN-OH) | 460000 M⁻¹ s⁻¹ |  | 
CC(C)[C@H](NC(=O)[C@@H]1CCCN1)C(=O)N1CCC[C@H]1C(=O)N[C@H](C(=O)N[C@@H](CO)C(=O)NCC(=O)N1C[C@H](O)C[C@H]1C(=O)N[C@@H](CO)C(=O)N[C@@H](CCCNC(=N)N)C(=O)N[C@@H](CCCCN)C(=O)N[C@@H](Cc1c[nH]cn1)C(=O)N[C@@H](CC(N)=O)C(=O)O)[C@@H](C)O [IDL3, IDA-LIKE] (H-PVPTSG[Hyp]SRKHN-OH) | 700000 M⁻¹ s⁻¹ |  | 
B1 |  | 3 nM | ~5 nM
B2 |  |  | 3000 nM
